We go through 15 sequences from a protein production outcome set (Wang et al. 2014).

This data set in a line: label from the status in PepcDB records.
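Also: failed if final PepcDB status was selected cloned or expressed and not failed if soluble or beyond.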

In the case of “MKVLCINPPDDLAALLGDGASFVSTMEPLGLLYVAAACREAGHEVAFIDAYAENLDEETLMRRIRDAAPQVVSFTSFTSNGGFLYTFGRRLRQEMPGVHVLLGNVHATIYARQYLASGCCDVVVRGEGEEVMPALLRVLEEGGDLATVPSIAYVRDGVVAETGGHAFVRDLSTLPLPARDLTRKELYSFARTPNFSLYRTPEGKTEKHLFSSRGCVNRCTFCVAHKNIGIRVRPIDSVIGEVDLLLREYDAGYIFFCDSLFTSRKKRIIELSDALRHHFPGLRWGCEAHVNTIDEDSVRAMAAGGCVDMNFGIESGVDRLLTAVNKRQTTAQIADAIRMVKRVSRINAIGLFILGLPGERPEDSDATIDFACSLPLDMAQFSILTPYPGSPIFEQLRAEGIIDDGVRPGDTLDPEVWRRYSSYASFSDNKPIWVTPEHSVEGLLAAQKRALRRFYLRPRPFLIQLRRLRPADLLDTARTFFKTFF”, the protein production result is “failed”.
With “MKVLTDLQKRIFAIVKKENGKPIPPGIVVRMMENQAGFPGKQQVYRAIDDLLEWHIFRKSGGATNQLLINYELADPVLDQKFQGILNLGNKNTGFVRPLDDDKTVYYIHFSNLAGALDGDLVEFCPLDKPQVGDKFDAAVLKIVKRSRVLYAGNFLIEYSDFGQEFRIVADNPRFYLTPIVNKASVPAELESNTKVAFQIDEYDPANNLCKVSIQQILGNNDEPLINLKAIMLDHSIVFEDNDVVEQQAAKLQFDEKEQSKPYRKDLTELAFVTIDPATSKDLDDAIYVKRTDKGFVLYVAIADVAYYVQRNSELDIEARHKTSSIYLPGYYVVPMLPERLSNELCSLNPNEKRYVVVCELNFDHEARLNFSEVYPATIVSQRRFAYSEVNDWLEDSDALKDESATVLESLKAGFTLSELIAEQRKKKGTIDLSHSETEVVVDQNYYPIEIRFLTHGKAETMIENLMVVANEAVAWTLTNHKVHLPYRVHPRPSKKKLQMLLENIVELKITQPNFVLDTVTSTQIAAWLKENKDNPSYDIFVILLLRTLGKAFYIVNPLIHFSIGSHHYTHFTSPIRRYADLTVHRLLWMNLFTPERFTDTEREQLNAELEQICETINDTEIKINGCERTANDYLTTLYLSKQVGQTFHGFISAITSFGIFMRMDENNFDGLIKITSIPEDFFVFEKDRMVLRGKRTNKVFRIGDRLTAKLTEIDTVQKRAILTLV”, the protein production result is given as “failed”.
With “MKVRADFAFEKVARDWFVRWSKGRSEKYAGQVMRNFERWVFPAIGNLDIRQVRTADVVGCLRVMEARGIVDTLRKTKNSLKMVFAFAVGSGMMEINPVAQIGSGVFERLEHHHHHH”, the protein production result is “not failed”.
On to “MKVSIIVPCYSVASKLPRCVHNLLAQTFTDWELILIDDGSTDNTWDICNSFTKNNAHIHAVHKENGGVSSARNTGIEIAKGEFITFIDSDDYVKPDYLQKLVEGQEADLVLCGFRSSTGIDFTPEPQYLIGDDLSKNIQAIVENDYLLYSPWCKLFRRDIIQKHQHRFDPEIRLGEDTIFCYKYLLYCSSIKVVASNSYFYDGVWGGYKKYVLTRQEVEYLDKAEITTLHDINQHFNCRIDLTYRGYHVAMLKGLYEKFRDYDTFEMYTRTHDVLPPEHFFANHKLSYIFWGIVELETLYVDKEYCAGKLFMQRLHHFFTIPTNQLLSYSYKMRLIHYLVKSKHYTMAHVLLIFLSILKHLEHHHHHH”, for which the protein production entry was “failed”.
In the case of “MKVVGLDLGGTKIAAGVFDGKRLLSKVVVPTPKEGGERVAEALAEAAERAEREAGVRGEAIGLGTPGPLDFRRGVIRFAPNIPGVQDFPIRRILEEATGRPVFLENDANAAALAEHHLGAAQGEESSLYLTVSTGIGGGVVLGGRVLRGERGQGGELGHLTLLPGGPACGCGLEGCLEALAAGRALERDATYAFQRPVDTRELFRLFQAGDPKAERLVLQAARYVGIGLASLVKAFDPGVVVLGGGVALNAPEGYWEALLEAYRRYLQGWEAPPLRRARLGAEAGLLGAALTAYLEVKDGSG” it was “not failed”.
In the case of “MKVYFDDIYVSTARQFELVDITDQVEQIVEKSGIKNGICLIFVAHSTAAIVANEHERGLMEDILTKIKEFTEPSRSWKHNLIDDNAHAHLGATFLGAERVFPVREGKLVRGTWQNIFLVELDGPRSERHITVEILGE” it was “not failed”.
For the sequence “MKWARPSMHSSAQRKLIMTRILSIIGVSLCIAMLSPVLQAANLKTLDVAALPGDRIELKLAFDAPVPAPRGYTTAQPARIALDLPGVTSQLETKSRELGTGNARSVVVVQAQDRTRVIINLTTLAPYSSRVDGNNLFVVIGQGAAAAQASQPTTAMGAQRVAVPPPAPASARPFIPAGVKAIRNVDFQRGELGEGNVVIDLSNPSIAPDIQEQGGKIRVDFAKTQLPEPLRVRLDVKDFATPVQFVSASATGDKASILIEPSGAFDYSAFQTENKLTISVRPLTNEDLDRRAADKPVYTGEKLSLNFQDIDVRSVLQLIADFTNLNLVASDTVQGGITLRLQNVPWDQALDLVLKTKGLDKRKVGSVLLVAPADEIAARERQELESLKQIAELAPLRRELLQVNYAKAADIAKLFQSVTSAESKAEERGSITVDDRTNNIIAYQTQDRLDELRRIVSQLDIPVRQVMIEARIVEANVDYNKQLGVRWGGSTNTSRNGKWTTYGLDDNGDEGGNTNANLTSNIPFVDLGAADATTGIGLGFVTNNTLLDLELSAMEKTGNGEIVSQPKVVTSDKETAKILKGTEIPYQESSSSGATTVSFKEASLSLEVTPQITPDNRIIMEVKVTKDEPDYLNAVLGVPPIKKNEVNAKVLISDGETIVIGGVFSNTQSKVVDKVPFLGDVPYLGRLFRRDVVSESKSELLVFLTPRIMNNQAISVSR”, the protein production result is recorded as “failed”.
Take “MKYLASFRTTLKASRYMFRALALVLWLLIAFSSVFYIVNALHQRESEIRQEFNLSSDQAQRFIQRTSDVMKELKYIAENRLSAENGVLSPRGRETQADVPAFEPLFADSDCSAMSNTWRGSLESLAWFMRYWRDNFSAAYDLNRVFLIGSDNLCMANFGLRDMPVERDTALKALHERINKYRNAPQDDSGSNLYWISEGPRPCVGYFYALTPVYLANRLQALLGVEQTIRMENFFLPGTLPMGVTILDENGHTLISLTGPESKIKGDPRWMQERSWFGYTEGFRELVLKKNLPPSSLSIVYSVPVDKVLERIRMLILNAILLNVLAGAALFTLARMYERRIFIPAESDALRLEEHEQFNRKIVASAPVGICILRTADGVNILSNELAHTYLNMLTHEDRQRLTQIICGQQVNFVDVLTSNNTNLQISFVHSRYRNENVAICVLVDVSSRVKMEESLQEMAQAAEQASQSKSMFLATVSHELRTPLYGIIGNLDLLQTKELPKGVDRLVTAMNNSSSLLLKIISDILDFSKIESEQLKIEPREFSPREVMNHITANYLPLVVRKQLGLYCFIEPDVPVALNGDPMRLQQVISNLLSNAIKFTDTGCIVLHVRADGDYLSIRVRDTGVGIPAKEVVRLFDPFFQVGTGVQRNFQGTGLGLAICEKLISMMDGDISVDSEPGMGSQFTVRIPLYGAQYPQKKGVEGLSGKRCWLAVRNASLCQFLETSLQRSGIVVTTYEGQEPTPEDVLITDEVVSKKWQGRAVVTFCRRHIGIPLEKAPGEWVHSVAAPHELPALLARIYLIEMESDDPANALPSTDKAVSDNDDMMILVVDDHPINRRLLADQLGSLGYQCKTANDGVDALNVLSKNHIDIVLSDVNMPNMDGYRLTQRIRQLGLTLPVIGVTANALAEEKQRCLESGMDSCLSKPVTLDVIKQTLTVYAERVRKSRDS”: the protein production entry is “failed”.
Regarding “MKYLLIFLLVLAIFVISVTLGAQNDQQVTFNYLLAQGEYRISTLLAVLFAAGFAIGWLICGLFWLRVRVSLARAERKIKRLENQLSPATDVAVVPHSSAAKE”, the protein production entry was “failed”.
For the sequence “MKYNYTVLLSAFTMSVLYSVIYIHSFIIAALITMAFYFLFPYLIFALPLQIMMNKKPKRFSPLYLLYYLAAAFIANAIIFGMLQPSGQSLFQNTAFYLFAVLTALIYWIWDSVLLQKKEA”, the protein production result was “failed”.
In the case of “MKYQNFIMRILCLLLILAAVVGYNSMQKKDTQAQESQEITALTKRVEKLEEQNTEILSALEEAAKNQEAAIAQAQRDAKDKDDAAKEDAEGADAADTEESDDSENVYKDGTYTGSAQGFGGAITVQVTLANDEITDIQVTSAPGEDSAYLSQGEGVISSIISAQSTDVDTVSGATFSSTGIINAVVDALGKAEN” it was “failed”; in that of “MKYSLCTISFRHQLISFTDIVQFAYENGFEGIELWGTHAQNLYMQEYETTERELNCLKDKTLEITMISDYLDISLSADFEKTIEKCEQLAILANWFKTNKIRTFAGQKGSADFSQQERQEYVNRIRMICELFAQHNMYVLLETHPNTLTDTLPSTLELLGEVDHPNLKINLDFLHIWESGADPVDSFQQLRPWIQHYHFKNISSADYLHVFEPNNVYAAAGNRTGMVPLFEGIVNYDEIIQEVRDTDHFASLEWFGHNAKDILKAEMKVLTNRNLEVVTS”, “not failed”; in that of “MKYWMLLFALLWVSYGTGMARKTEKVVNNGIPWFDDRGEIVNAHGACIVEENGRYYLFGEYKSDKSNAFPGFSCYSSDDLVNWKFERVVLPMQSSGILGPDRVGERVKVMKCPSTGEYVMYMHADDMNYKDPHIGYATCSTIAGEYKLHGPLLYEGKPIRRWDMGTYQDTDGTGYLLLHGGIVYRLSKDYRTAEEKVVSGVGGSHGESPAMFKKDGTYFFLFSNLTSWEKNDNFYFTAPSVKGPWTRQGLFAPEGSLTYNSQTTFVFPLKCGEDTIPMFMGDRWSYPHQASAATYVWMPMQVDGTKLSIPEYWPSWDVDKLKPVNPLRKGKTVDLKKITFSKEADWKVEEGRISSNVKGSTLSIPFTGSCVAVMGETNCHSGYARMNILDKKGEKIYSSLVDFYSKANDHATRFKTPQLAEGEYTLVIEVTGISPTWTDKTKRIYGSDDCFVTITDIVKL”, “failed”.
For “MLAALEVAVPALYAVAIVVLTAYGGNLLWLALVHAASERLRDGPVPDPDDLPVPDDDWPVVTVQLPLYNEAEVAHRLIDACVQLDYPRSRLDIQVLDDSTDATTERVARRVAHWQAEGVNITHVRRDDRTGYKAGALANGLQRARGDLIAIFDADFVPRPSFLRRLVPRFFDAPDLGMVQARWGHLNRDDSLLTKVQAFGLDAHFAIEQRVRELAGCFLNFNGTAGVWRRACIEDAGGWAHDTLTEDLDLSYRAQLQGWRLTYVPAAEAPAELPPDMNALRAQQFRWAKGGAETALKLTGRLWRSAQPWRVKLEGTFHLTAHFAFPFILLAALTHAPLLLLKGIGHGPGEVYFAVMGFGLFGFAGFFLAQLFAQRALHPDWRRRLRLFVPFMAGTMGLSLSNTSAVWQALRGTDTAFIRTPKVGSAGGDGWWESRYAIREVPRIVWGELALAVYSTVGLGVVIGLGEWAAVPFQALFALGFALVTASSLRQALTAQQGPTASAPASSPAA”, the protein production result is listed as “failed”.
Turning to “MLAALFSIAAVFGFHAEDEPYIVTLPWYELFSSAAKAVAGTIHNPFGLFGARVSVFFIRVLLGYPSVMPLFGFLVLGWHLFRAKPLGPGLFFLVYTLLMALDLSAMFGLSMLPLADLMSGATGRMMASFLSTVIGYPGAWALTAIIAAVLTFYMGRDFIVDTIAGVSGFFGKLLATVQAIRAERHRKRREKEEMRVRKKAERMAAVLEKEQRKRDKKAQRARKAGDASKQKAAPFENSPETPAPVMDVEPAPPLLNPAVSEPVVIPAEVEEIRTPEPAPVRPEEGPEMIIKPGVQEAEADLDERALKVRTHDHVKYRFPSIDLLRRPKDEDESYDERHLAETKDRLLEKLRIYKIDVIRIATTVGPRVALFELELAPEVKISRIKSLENDLAMAMASSSGGIRIIAPIPGKNAIGVEIPISKPRPVVMRSVLQVEKFKNNSMALPIVLGKSISNEVIVDDLAAMPHLLIAGATGAGKSVAINVLLTSLLYSKKPDEVKFVLIDPKRVELKPYKLLKDHFLPKIPGMEEQIIVTDPQKAVSALRSVVREMEHRYELLEQCGVRNIGEYNRKMKDEAMFYLVVVVDELADLMITAGREVEEPITRLAQMARAVGIHLIVATQRPSVDIITGIIKANFPSRIAFQVASKVDSRTILDVSGAEQLLGSGDMLFQSAKMSKPQRIQCPYISLSEVDAITEFIGQQPPLRAECMLPEPPSSSGNGSSSGFDQDRGRRDSMFEEAARLVVMHQQASVSLLQRRLRLGFSRAGRVMDQLEQSGIVSAGDGSKPREVLVKNEDSLELLLRNLD”, the protein production result is “failed”.
